Assay results taken from patent publication US20200339699A1 (Innovent, published 2020).
Changes are numbered by the printed parent chain. Numbers in names are those of the source.

B1: ADI-34832 (antibody, V domains shown)
VH: QITLKESGPTLVKPTQTLTLTCTFSGFSLSTSGVGVGWIRQPPGKALEWLALIYWNDEKRYSPSLKSRLTITKDTSKNQVVLTMTNMDPVDTAVYYCARDPGEQLQVFDYWGQGTLVTVSS
VL: DIQMTQSPSSVSASVGDRVTITCRASQGISSWLAWYQQKPGKAPKLLIYAASSLQSGVPSRFSGSGSGTDFTLTISSLQPEDFATYYCQQTLSLPITFGGGTKVEIK
notes: Yeast-expressed fully human antibody purified on protein A
B2: ADI-34846 (antibody, V domains shown)
VH: QVQLVQSGAEVKKPGSSVKVSCKASGGTFSNYAISWVRQAPGQGLEWMGGIIPIFGTANYAQKFQGRVTITADESTSTAYMELSSLKSEDTAVYYCARGSGYYSSWLFDIWGQGTMVTVSS
VL: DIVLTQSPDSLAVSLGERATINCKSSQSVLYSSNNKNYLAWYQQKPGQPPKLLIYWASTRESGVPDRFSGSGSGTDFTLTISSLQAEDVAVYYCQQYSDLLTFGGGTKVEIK
notes: as for B1
B3: ADI-34848 (antibody, V domains shown)
VH: EVQLLESGGGLVQPGGSLRLSCAASGFTFDDYAMHWVRQAPGKGLEWVSGISWSSGSIGYADSVKGRFTISRDNAKNSLYLQMNSLRAEDTAVYYCAKDSPRRDSFGSIAFDIWGQGTMVTVSS
VL: not shown
notes: as for B1
B4: ADI-34849 (antibody, V domains shown)
VH: B3 VH with L5V, G16R
VL: EIVLTQSPATLSLSPGERATLSCRASQSVSSYLAWYQQKPGQAPRLLIYDASKRATGIPARFSGSGSGTDFTLTISSLEPEDFAVYYCQQASALPLTFGGGTKVEIK
notes: as for B1
B5: ADI-34850 (antibody, V domains shown)
VH: B3 VH with L5V, G16R
VL: EIVMTQSPATLSVSPGERATLSCRASQSVGSNLAWYQQKPGQAPRLLIYGASTRATGIPARFSGSGSGTEFTLTISSLQSEDFAVYYCQQSVNLPITFGGGTKVEIK
notes: as for B1
B6: ADI-34854 (antibody, V domains shown)
VH: QVQLVESGGGVVQPGRSLRLSCAASGFTFSSYGMHWVRQAPGKGLEWVAVISYEGSNKYYADSVKGRFTISRDNSKNTLYLQMNSLRAEDTAVYYCARDTSSYGDASYGMDVWGQGTTVTVSS
VL: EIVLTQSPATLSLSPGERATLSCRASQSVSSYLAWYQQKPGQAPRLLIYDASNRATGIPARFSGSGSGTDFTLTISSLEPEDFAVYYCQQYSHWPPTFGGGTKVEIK
notes: as for B1
B7: ADI-34857 (antibody, V domains shown)
VH: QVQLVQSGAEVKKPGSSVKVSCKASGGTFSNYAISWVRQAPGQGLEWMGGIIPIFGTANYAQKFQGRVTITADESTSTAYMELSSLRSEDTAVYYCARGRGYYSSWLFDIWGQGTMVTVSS
VL: DIQMTQSPSSLSASVGDRVTITCQASQDITNYLNWYQQKPGKAPKLLIYDASNLETGVPSRFSGSGSGTDFTFTISSLQPEDIATYYCQQAFDLITFGGGTKVEIK
notes: as for B1
B8: ADI-34859 (antibody, V domains shown)
VH: QLQLQESGPGLVKPSETLSLTCTVSGGSISSSSYYWGWIRQPPGKGLEWIGSISYSGSTYYNPSLKSRVTISVDTSKNQFSLKLSSVTAADTAVYYCARDRGDTILDVWGQGTMVTVSS
VL: B1 VL with V11L, G28S, S30N, W32Y, A34N, T91K, L92A, L94A
notes: as for B1
B9: ADI-34860 (antibody, V domains shown)
VH: B8 VH
VL: DIQMTQSPSSLSASVGDRVTITCRASQSISSYLNWYQQKPGKAPKLLIYAASSLQSGVPSRFSGSGSGTDFTLTISSLQPEDFATYYCQQKYDLLTFGGGTKVEIK
notes: as for B1
B10: ADI-34861 (antibody, V domains shown)
VH: B8 VH
VL: B9 VL with S31R, D93F, L94D, L95I
notes: as for B1
B11: human BCMA-His (receptor)
chain: MLQMAGQCSQNEYFDSLLHACIPCQLRCSSNTPPLTCQRYCNASVTNSVKGTNA
notes: Bought antigen (ACRO BIOSYSTEMS, BCA-H522Y); probably only the extracellular domain stood in the assay; also called hBCMA-His; monovalent human BCMA; not shown: His tag
B12: human BCMA on NCI-H929 cells (receptor)
chain: MLQMAGQCSQNEYFDSLLHACIPCQLRCSSNTPPLTCQRYCNASVTNSVKGTNAILWTCLGLSLIISLAVFVLMFLLRKINSEPLKDEFKNTGSGLLGMANIDLEKSRTGDEIILPRGLEYTVEECTCEDCIKSKPKVDSDHCFPLPAMEEGATILVTTKTNDYCKSLPAALSATEIEKSISAR
notes: BCMA-positive human multiple myeloma cell line NCI-H929 (ATCC CRL-9068); also called B-cell maturation antigen; CD269

Tests used:
[1] = target: B12; assay: flow cytometry on NCI-H929 cells, yeast-expressed antibody
Experimental: The method is specifically as follows: [0293] 1. A human NCI-H929 (ATCC, CRL-9068) cell suspension was taken, adjusted to a cell density of 2×10⁶ cells/mL, and added to a 96-well microplate at 100 μL/well. The cell suspension was centrifuged at 400 G for 5 min and the supernatant was removed. [0294] 2. The anti-BCMA antibody solution was serially diluted in 3-fold gradient in PBS containing 0.1% bovine serum albumin (BSA) from a concentration of 400 nM for a total of 12 points, 100 μL of the dilution of the antibody was added to each well, and then the plate was incubated at 4° C. for 30 min [0295] 3. The mixture was centrifuged at 400 G for 5 min, and washed twice with PBS, and […] of a dilution of a secondary antibody (a phycoerythrin (PE) labeled goat anti-human IgG antibody, SouthernBiotech, final concentration: 5 μg/mL) in PBS (1% BSA) was added to each well. The plate was incubated at 4° C. for 30 min (in the dark). [0296] 4. Then the resulting solution was centrifuged at 400 G for 5min, and washed twice with PBS, and the cells were resuspended with 100 μL of PBS per well. Flow cytometry was performed on an Accuri C6 system (BD Bioscience) to detect PE positive signals, and MFI was calculated based on C6 software. The EC50 values were calculated using GraphPad software.

ADI-34848 scFv-hFc [2] = assay: BLI (ForteBio Octet Red96), scFv-hFc on AHC sensors, human BCMA-His in solution
Experimental: The kinetic constants of the antibody molecules were determined based on the biofilm layer interferometry (BLI) of a fiber optic biosensor.
The Fortebio instrument model used in the experiment was Octet Red96, and a ForteBio affinity assay was performed according to the existing method (Estep, P et al., High throughput solution Based measurement of antibody-antigen affinity and epitope binning MAbs, 2013.5 (2): p. 270-8). The assay is specifically as follows: [0317] 1. Half an hour before the experiment, an appropriate number of AHC sensors were taken according to the number of samples and soaked in the SD buffer (50 mL PBS+0.1% BSA +0.05% Tween-20). [0318] 2. SD buffer, scFv-hFc antibodies and human BCMA-His antigens (ACRO BIOSYSTEMS, BCA-H522Y), each of 100 μL were added to a 96-well half-area black polystyrene microplate respectively. [0319] 3. The plates were arranged according to the positions of the samples, the positions of the sensors were selected, and the operation procedures were set as: Baseline, Loading ˜1 nm, Baseline, Association, and Dissociation, each running for a time depending on the binding and dissociation rates of the sample, at a rotation speed of 1,000 rpm and a temperature of 30° C. [0320] 4.

ADI-34848 scFv-hFc [3] = assay: flow cytometry on NCI-H929 cells, scFv-hFc

Binder: B1
- EC50 [1]: 34.1 nM

Binder: B2
- EC50 [1]: 136 nM

Binder: B3
- EC50 [1]: 24.8 nM

Binder: B4
- EC50 [1]: 9.11 nM

Binder: B5
- EC50 [1]: 12.1 nM

Binder: B6
- EC50 [1]: 83.2 nM

Binder: B7
- EC50 [1]: 25.2 nM

Binder: B8
- EC50 [1]: 85.8 nM

Binder: B9
- EC50 [1]: 144 nM

Binder: B10
- EC50 [1]: 65.1 nM

Binder: B11
- Kd (ADI-34848 scFv-hFc [2]): 71.1 nM
- koff (ADI-34848 scFv-hFc [2]): 0.0145 s⁻¹
- kon (ADI-34848 scFv-hFc [2]): 204000 M⁻¹ s⁻¹

Binder: B12
- binding result (ADI-34848 scFv-hFc [3]): binds
